Target: T1, GST-tagged GFA1 (GST-GFA1) (Arabidopsis, UniProt Q9LNC5 1-987)
T1 construct: GAMETOPHYTIC FACTOR 1 (GFA1), Arabidopsis, full-length cDNA in pGEX-4T-1; also called pGEX-4T-GFA1; source: E. coli BL21 (DE3), purified (glutathione-Sepharose 4B)
T1 sequence (looked up): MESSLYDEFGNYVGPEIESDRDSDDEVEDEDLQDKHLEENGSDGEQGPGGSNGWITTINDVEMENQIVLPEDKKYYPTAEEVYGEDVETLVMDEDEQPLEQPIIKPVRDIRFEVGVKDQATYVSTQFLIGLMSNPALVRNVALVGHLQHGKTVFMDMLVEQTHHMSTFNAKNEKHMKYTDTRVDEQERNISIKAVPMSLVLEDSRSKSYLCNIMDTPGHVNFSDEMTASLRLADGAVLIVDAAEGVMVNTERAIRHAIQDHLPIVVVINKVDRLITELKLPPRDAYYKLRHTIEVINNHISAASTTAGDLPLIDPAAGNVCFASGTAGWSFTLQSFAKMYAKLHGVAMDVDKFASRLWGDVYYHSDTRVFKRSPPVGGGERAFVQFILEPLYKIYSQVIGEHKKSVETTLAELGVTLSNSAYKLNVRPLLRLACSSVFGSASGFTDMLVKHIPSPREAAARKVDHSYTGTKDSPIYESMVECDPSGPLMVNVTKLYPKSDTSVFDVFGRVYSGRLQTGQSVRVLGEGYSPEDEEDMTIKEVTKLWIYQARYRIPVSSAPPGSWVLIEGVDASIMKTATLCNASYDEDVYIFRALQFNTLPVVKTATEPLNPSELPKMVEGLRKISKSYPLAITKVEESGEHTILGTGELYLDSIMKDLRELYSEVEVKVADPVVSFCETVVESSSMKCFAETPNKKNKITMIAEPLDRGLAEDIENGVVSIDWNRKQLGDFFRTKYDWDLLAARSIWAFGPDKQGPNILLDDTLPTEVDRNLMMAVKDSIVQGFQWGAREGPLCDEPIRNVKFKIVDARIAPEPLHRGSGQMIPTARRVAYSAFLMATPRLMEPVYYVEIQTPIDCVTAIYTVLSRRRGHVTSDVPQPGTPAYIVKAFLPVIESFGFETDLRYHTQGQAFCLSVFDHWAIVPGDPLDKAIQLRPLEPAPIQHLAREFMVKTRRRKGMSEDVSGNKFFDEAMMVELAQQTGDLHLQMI
Experiment: pull-down; GST or GST-GFA1 on glutathione-Sepharose 4B beads, His-RID1 added, 4 °C 1–2 h; 50mM Tris-HCl pH 7.5, 100mM NaCl; wash with 150mM NaCl, 25mM imidazole; immunoblot with anti-HIS antibody
Details: both partners purified

binding result: binds
B1: hexa-histidine-tagged RID1 (His-RID1) (natural protein, Arabidopsis, UniProt F4IE66 1-717, looked up)
chain: MPSMAQGELKSFVQNSRPNPKSPTVSPFSMRQKIAEHRRSLPIASVEKRLVEEVQKNDILIIVGETGSGKTTQLPQFLYNAGFCREGKMIGITQPRRIAAVTVAKRVAEECEVQLGQKVGYSIRFDDTTSGSTRLKYMTDGLLLREALLDPHLSRYSVIIVDEAHDRSVHTDVLLALLKKIQRTRSQPVSEKTEFGNVASQVQTTTRDANGPQQNGVLKGYQGRKLSPLKLIIMSASLDARVFSEYFGGAKAVHVQGRQFPVDILYTVHPESDYVDATLVTIFQIHFEEKPGDILVFLTGQDEIESVERLVQERLQNIPEDKRKLLPLAIFSALPSEQQMKVFAPAPTGFRKVILATNIAETSITIPGIRYVIDPGFVKARSYDPSKGMESLDVVPASKAQTLQRSGRAGREGPGKSFRLYPEREFEKLEDSTKPEIKRCNLSNIILQLKALGIDDIVGFDFIDKPSRGAIIKALAELHSLGALADDGKLENPVGYQMSRLPLEPVYSKALILANQFNCLEEMLITVAVLSVESIFYDPREKREEARTSKNHFASVEGDHLTYLSVYRESDEFLEKRKAAGSGNNIDKIMKKWCKENYVNSRSLKHARDIYRQIREHVEQIGFNVSSCGNDMLAFRRCLAASFFLKAAQRQLDGTYRALESGEVVHIHPTSVLFRAKPECVIFNELMQTSKKYIKNLTIIDSLWLSELAPHHFQTAE
notes: ROOT INITIATION … 1 (RID1), Arabidopsis, At1g26370, full-length cDNA in pET-28a-c(+); also called pET-28a-RID1; source: E. coli BL21 (DE3), purified (Ni Sepharose 6 Fast Flow)

— paper PMC5066494, “Interaction between RNA helicase ROOT INITIATION DEFECTIVE 1 and GAMETOPHYTIC FACTOR 1 is involved in female gametophyte development in Arabidopsis” (Journal of Experimental Botany, 2016)
